According to article PMC4872126, “Mechanistic insight into cadmium-induced inactivation of the Bloom protein”:

Experiments:
RecQ E. coli = RecQ E. coli (Escherichia coli, UniProt P15043 1-609); assay: fluorescence anisotropy; IC50 of CdCl2 inhibiting binding (not protein affinity); 200 nM protein, 5 nM DNA; 50 mM Tris-HCl pH 8.0, 50 mM NaCl, 1 mM DTT, 25 C; 200 nM protein, 5 nM 3'-fluorescein DNA; conditions: protein: recombinant; label: 3'-fluorescein
BLM642-1290 [1] = target: T1, BLM642-1290 (human, UniProt P54132 642-1290); assay: as above; conditions: protein: recombinant; label: 3'-fluorescein
T1 sequence (P54132 642-1290): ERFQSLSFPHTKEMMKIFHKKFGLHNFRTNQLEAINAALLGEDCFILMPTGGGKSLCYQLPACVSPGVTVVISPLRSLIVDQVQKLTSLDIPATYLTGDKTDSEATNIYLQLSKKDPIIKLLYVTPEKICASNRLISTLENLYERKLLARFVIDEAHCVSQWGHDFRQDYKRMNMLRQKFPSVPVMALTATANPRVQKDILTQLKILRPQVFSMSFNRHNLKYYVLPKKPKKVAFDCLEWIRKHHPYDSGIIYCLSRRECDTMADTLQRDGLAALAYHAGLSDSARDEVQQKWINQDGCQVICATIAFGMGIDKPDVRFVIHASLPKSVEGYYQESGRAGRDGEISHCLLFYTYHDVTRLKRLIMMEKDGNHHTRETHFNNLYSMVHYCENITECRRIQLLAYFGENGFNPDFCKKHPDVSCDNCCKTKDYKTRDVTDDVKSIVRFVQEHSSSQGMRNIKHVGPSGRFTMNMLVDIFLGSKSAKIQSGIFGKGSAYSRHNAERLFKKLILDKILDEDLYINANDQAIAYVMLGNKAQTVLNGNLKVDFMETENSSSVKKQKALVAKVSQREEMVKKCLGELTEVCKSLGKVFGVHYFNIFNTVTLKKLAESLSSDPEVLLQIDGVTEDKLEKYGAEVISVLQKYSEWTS

BLM full-length = BLM full-length (human, UniProt P54132 1-1417); assay: as above; conditions: protein: recombinant; (Ni-NTA purified); label: 3'-fluorescein
Sequence of BLM full-length (P54132 whole entry): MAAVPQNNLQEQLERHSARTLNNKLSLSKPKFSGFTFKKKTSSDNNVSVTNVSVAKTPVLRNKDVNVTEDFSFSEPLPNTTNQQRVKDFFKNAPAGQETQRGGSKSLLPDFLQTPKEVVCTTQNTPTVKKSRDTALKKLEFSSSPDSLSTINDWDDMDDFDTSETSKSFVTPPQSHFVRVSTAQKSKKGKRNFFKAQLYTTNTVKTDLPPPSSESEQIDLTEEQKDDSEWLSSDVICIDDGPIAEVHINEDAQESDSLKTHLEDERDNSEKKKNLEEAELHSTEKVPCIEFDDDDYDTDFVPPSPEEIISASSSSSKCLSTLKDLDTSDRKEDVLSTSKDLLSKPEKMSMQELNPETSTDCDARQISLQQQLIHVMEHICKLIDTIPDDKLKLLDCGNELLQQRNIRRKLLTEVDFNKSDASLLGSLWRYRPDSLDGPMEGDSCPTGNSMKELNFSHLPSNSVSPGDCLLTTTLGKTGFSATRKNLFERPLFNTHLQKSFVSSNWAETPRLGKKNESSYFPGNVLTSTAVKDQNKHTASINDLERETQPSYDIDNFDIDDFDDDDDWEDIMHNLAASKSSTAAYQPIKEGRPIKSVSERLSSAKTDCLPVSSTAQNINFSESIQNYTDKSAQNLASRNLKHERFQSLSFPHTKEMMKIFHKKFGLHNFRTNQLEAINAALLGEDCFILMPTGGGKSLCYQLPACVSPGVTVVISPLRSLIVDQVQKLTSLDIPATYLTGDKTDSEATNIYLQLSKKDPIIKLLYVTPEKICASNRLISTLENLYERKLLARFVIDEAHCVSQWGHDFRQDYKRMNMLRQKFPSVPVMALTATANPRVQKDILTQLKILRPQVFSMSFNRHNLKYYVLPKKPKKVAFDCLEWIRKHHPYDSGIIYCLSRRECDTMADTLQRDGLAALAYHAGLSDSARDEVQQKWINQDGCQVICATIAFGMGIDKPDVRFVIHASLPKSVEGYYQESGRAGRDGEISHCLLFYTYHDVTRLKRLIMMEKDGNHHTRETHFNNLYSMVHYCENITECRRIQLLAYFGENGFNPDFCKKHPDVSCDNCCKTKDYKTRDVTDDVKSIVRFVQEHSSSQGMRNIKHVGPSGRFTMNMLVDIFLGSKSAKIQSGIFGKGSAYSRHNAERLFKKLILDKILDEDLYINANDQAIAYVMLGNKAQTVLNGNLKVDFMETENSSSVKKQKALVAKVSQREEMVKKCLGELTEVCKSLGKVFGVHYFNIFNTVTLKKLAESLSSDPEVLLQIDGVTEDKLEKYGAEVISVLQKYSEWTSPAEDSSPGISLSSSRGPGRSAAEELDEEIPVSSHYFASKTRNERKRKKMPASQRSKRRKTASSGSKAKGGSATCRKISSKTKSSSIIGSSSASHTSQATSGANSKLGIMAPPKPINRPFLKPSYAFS

BLM642-1290 [2] = target: T1, BLM642-1290; assay: fluorescence anisotropy; 0.5 mM NEM, 2 mM DTT, no Cd2+; 50 mM Tris-HCl pH 8.0, 50 mM NaCl, 1 mM DTT, 25 C; 200 nM protein, 5 nM 3'-fluorescein DNA; conditions: protein: recombinant; label: 3'-fluorescein

Sequence of RecQ E. coli (P15043 whole entry): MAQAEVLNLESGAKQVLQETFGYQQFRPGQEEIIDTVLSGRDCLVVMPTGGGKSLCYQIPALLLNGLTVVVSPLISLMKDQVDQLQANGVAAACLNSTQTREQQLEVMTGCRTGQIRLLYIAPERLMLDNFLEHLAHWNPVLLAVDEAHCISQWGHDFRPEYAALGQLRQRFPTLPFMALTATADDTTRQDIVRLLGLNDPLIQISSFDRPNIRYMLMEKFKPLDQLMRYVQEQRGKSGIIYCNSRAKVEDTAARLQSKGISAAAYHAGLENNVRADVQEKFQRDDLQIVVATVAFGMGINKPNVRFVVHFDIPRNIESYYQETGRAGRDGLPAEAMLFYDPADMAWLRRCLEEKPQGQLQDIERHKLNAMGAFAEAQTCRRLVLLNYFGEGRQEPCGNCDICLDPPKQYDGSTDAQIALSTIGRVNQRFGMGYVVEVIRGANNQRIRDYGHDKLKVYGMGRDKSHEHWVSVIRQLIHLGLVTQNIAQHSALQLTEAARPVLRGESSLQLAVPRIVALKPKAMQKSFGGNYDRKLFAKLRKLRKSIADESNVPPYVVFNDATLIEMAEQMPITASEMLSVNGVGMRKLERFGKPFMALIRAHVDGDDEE

GCCCTGCTGCCGACCAACGAAGGT (ssDNA) [F-24 ss]
IC50 (RecQ E. coli): 40.2 µM | IC50 (BLM642-1290 [1]): 10.2 µM | IC50 (BLM full-length): 6.63 µM

GCCTCGCTGCCGTCGCCA (ssDNA) [F-18]
binding result (BLM642-1290 [2]): binds

GCCCTGCTGCCGACCAACGATGGTTACATTCCCGCTGCTG (ssDNA) [F-40]
IC50 (RecQ E. coli): 39.2 µM | IC50 (BLM642-1290 [1]): 9.98 µM | IC50 (BLM full-length): 6.64 µM
